Measurements from patent publication US20260049126A1 (UCB, published 2026).
Like-named read-outs stand apart in the source and are kept apart here.

B1: FST288WT (other)
chain: GNCWLRQAKNGRCQVLYKTELSKEECCSTGRLSTSWTEEDVNDNTLFKWMIFNGGAPNCIPCKETCENVDCGPGKKCRMNKKNKPRCVCAPDCSNITWKGPVCGLDGKTYRNECALLKARCKEQPELEVQYQGRCKKTCRDVFCPGSSTCVVDQTNNAYCVTCNRICPEPASSEQYLCGNDGVTYSSACHLRKATCLLGRSIGLAYEGKCIKAKSCEDIQCTGGKKCLWDFKVGRGRCSLCDELCPDSKSDEPVCASDNATYASECAMKEAACSSGVLLEVKHSGSCN
B2: FST315HBM-Fab (other)
heavy: GNCWLRQAKNGRCQVLYKTELSKEECCSTGRLSTSWTEEDVNDNTLFKWMIFNGGAPNCIPCKETCENVDCGPGKACRMNAANKPRCVCAPDCSNITWKGPVCGLDGKTYRNECALLKARCKEQPELEVQYQGRCKKTCRDVFCPGSSTCVVDQTNNAYCVTCNRICPEPASSEQYLCGNDGVTYSSACHLRKATCLLGRSIGLAYEGKCIKAKSCEDIQCTGGKKCLWDFKVGRGRCSLCDELCPDSKSDEPVCASDNATYASECAMKEAACSSGVLLEVKHSGSCNSISEDTEEEEEDEDQDYSFPISSILEWSGGGGSEVQLLESGGGLVQPGGSLRLSCAVSGIDLSNYAINWVRQAPGKGLEWIGIIWASGTTFYATWAKGRFTISRDNSKNTVYLQMNSLRAEDTAVYYCARTVPGYSTAPYFDLWGQGTLVTVSSASTKGPSVFPLAPSSKSTSGGTAALGCLVKDYFPEPVTVSWNSGALTSGVHTFPAVLQSSGLYSLSSVVTVPSSSLGTQTYICNVNHKPSNTKVDKKVEPKSC
light: DIQMTQSPSSVSASVGDRVTITCQSSPSVWSNFLSWYQQKPGKAPKLLIYEASKLTSGVPSRFSGSGSGTDFTLTISSLQPEDFATYYCGGGYSSISDTTFGGGTKVEIKRTVAAPSVFIFPPSDEQLKSGTASVVCLLNNFYPREAKVQWKVDNALQSGNSQESVTEQDSKDSTYSLSSTLTLSKADYEKHKVYACEVTHQGLSSPVTKSFNRGEC
notes: paired with the Fab light chain; also called FST-Fab1; FST-Fab 1
B3: FST315WT (other)
chain: GNCWLRQAKNGRCQVLYKTELSKEECCSTGRLSTSWTEEDVNDNTLFKWMIFNGGAPNCIPCKETCENVDCGPGKKCRMNKKNKPRCVCAPDCSNITWKGPVCGLDGKTYRNECALLKARCKEQPELEVQYQGRCKKTCRDVFCPGSSTCVVDQTNNAYCVTCNRICPEPASSEQYLCGNDGVTYSSACHLRKATCLLGRSIGLAYEGKCIKAKSCEDIQCTGGKKCLWDFKVGRGRCSLCDELCPDSKSDEPVCASDNATYASECAMKEAACSSGVLLEVKHSGSCNSISEDTEEEEEDEDQDYSFPISSILEW

Columns and labels:
[1] = target: T1, Activin A (UniProt P08476 311-426); assay: SPR (Biacore T200), FST-Fab captured on anti-F(ab')2, Activin A as analyte, 1:1 model
T1 sequence (looked up): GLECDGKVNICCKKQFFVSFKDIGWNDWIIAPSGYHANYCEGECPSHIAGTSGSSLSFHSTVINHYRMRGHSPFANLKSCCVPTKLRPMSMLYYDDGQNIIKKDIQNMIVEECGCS
Procedure: (§1) The binding kinetics of the fusion proteins to various targets (see below) were determined by surface plasmon resonance using a Biacore T200 (Cytiva). For each type of assay, kinetic parameters were determined using a 1:1 binding model using Biacore T200 Evaluation software (version 3.0).
(§2) For the assessment of binding to Activin A and Activin B (R&D Systems), a goat anti-human F(ab′)₂ fragment specific antibody (Jackson ImmunoResearch) was first immobilised on a CM5 Sensor Chip via amine coupling chemistry to a level of approximately 5000RU. Using a standard multi-cycle kinetic approach, each analysis cycle consisted of capture of FST-Fab to the anti-F(ab′)₂ surface followed by injection of analyte and finally surface regeneration using 60s injections of 50 mM HCl, and 5 mM NaOH. […] The binding response of a parallel blank surface was subtracted, and buffer blank injections were included to subtract instrument noise and drift.

[2] = target: GDF8 (myostatin) (UniProt O14793); assay: SPR (Biacore T200), GDF8 amine-coupled, FST-Fab as analyte, single-cycle kinetics
[3] = target: T2, Activin B (UniProt P09529 293-407); assay: SPR (Biacore T200), FST-Fab captured on anti-F(ab')2, Activin B as analyte, 1:1 model
T2 sequence (looked up): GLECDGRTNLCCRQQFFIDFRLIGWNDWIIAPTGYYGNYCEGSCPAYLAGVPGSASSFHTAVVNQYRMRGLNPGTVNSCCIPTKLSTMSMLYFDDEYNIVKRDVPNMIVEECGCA
Procedure: as §1, §2

[4] = target: T3, GDF11 (UniProt O95390 299-407); assay: cell-based or functional assay
[5] = target: T4, GDF8 (myostatin) (UniProt O14793 267-375); assay: cell-based or functional assay
[6] = target: T1, Activin A; assay: cell-based or functional assay
[7] = target: T2, Activin B; assay: cell-based or functional assay
[8] = target: T3, GDF11; assay: cell-based or functional assay; remark: listed apart in the source
[9] = target: T4, GDF8 (myostatin); assay: cell-based or functional assay; remark: listed apart in the source
[10] = target: T1, Activin A; assay: cell-based or functional assay; remark: listed apart in the source
[11] = target: T2, Activin B; assay: cell-based or functional assay; remark: listed apart in the source
[12] = target: T4, GDF8 (myostatin); assay: SPR (Biacore T200), GDF8 amine-coupled, FST-Fab as analyte, single-cycle kinetics
Procedure: as §1
(§3) For the assessment of binding to GDF8 and GDF11 (R&D Systems), each one of GDF8 and GDF11 was immobilised by amine coupling chemistry to the surface of a CM5 sensorchip to achieve an immobilisation level of approximately 250RU. For both GDF8 and GDF11, analysis was conducted using a single-cycle kinetics approach with sequential 180s injections of FST-Fab at increasing concentrations (0.8, 4, 20, 100 and 500 nM) in HBS-EP+ running buffer (Cytiva) at 25° C. at a flow rate of 30 μl/min, followed by monitoring the dissociation for 1800s. The binding response of a parallel blank surface was subtracted, and a series of buffer blank injections were conducted to subtract instrument noise and drift.

[13] = target: T3, GDF11; assay: cell-based or functional assay; remark: listed apart in the source
[14] = target: T4, GDF8 (myostatin); assay: cell-based or functional assay; remark: listed apart in the source
[15] = target: T2, Activin B; assay: cell-based or functional assay; remark: listed apart in the source
[16] = target: T3, GDF11; assay: SPR (Biacore T200), GDF11 amine-coupled, FST-Fab as analyte, single-cycle kinetics
Procedure: as §1, §3

[17] = target: T5, Human Albumin (human, UniProt P02768 25-609); assay: SPR (Biacore T200), fusion protein captured on anti-F(ab')2, albumin as analyte, 1:1 model
T5 construct: Analyte in the Biacore albumin assay; also called human serum albumin; HSA
Procedure: as §1
For the assessment of binding to albumin: A goat anti-human F(ab′)2 fragment specific antibody (Jackson ImmunoResearch) was first immobilised on a CM5 Sensor Chip via amine coupling chemistry to a level of approximately 5000RU. Using a standard multi-cycle kinetic approach, each analysis cycle consisted of capture of the fusion protein to be tested to the anti-F(ab′)2 surface followed by injection of albumin and finally surface regeneration using 60s injections of 50 mM HCl, and 5 mM NaOH. […] The binding response of a parallel blank surface was subtracted and buffer blank injections were included to subtract instrument noise and drift.

[18] = target: T3, GDF11; assay: cell-based or functional assay; remark: listed apart in the source
[19] = target: T4, GDF8 (myostatin); assay: cell-based or functional assay; remark: listed apart in the source
[20] = target: T1, Activin A; assay: cell-based or functional assay; remark: listed apart in the source
[21] = target: T2, Activin B; assay: cell-based or functional assay; remark: listed apart in the source
[22] = target: T1, Activin A; assay: cell-based or functional assay; remark: listed apart in the source

Molecule | Kd [1] [nM] | Kd [2] [nM] | Kd [3] [nM] | IC50 (geomean), Smad2/3 reporter gene assay, HEK-Blue TGFb cells [4] [nM] | IC50 (geomean), Smad2/3 reporter gene assay, HEK-Blue TGFb cells [5] [nM] | IC50 (geomean), Smad2/3 reporter gene assay, HEK-Blue TGFb cells [6] [nM] | IC50 (geomean), Smad2/3 reporter gene assay, HEK-Blue TGFb cells [7] [nM] | IC50 (read off the curve) [13] [nM] | IC50 (read off the curve) [14] [nM] | IC50 (read off the curve) [15] [nM] | other results
FST315-Fab | 0.2 | 0.15 | 0.069 |  |  |  |  |  |  |  | 
FST288-Fab | 0.032 | 0.24 | 0.071 |  |  |  |  |  |  |  | 
B1 |  |  |  | 0.77 | 0.73 | 0.14 | 0.45 |  |  |  | IC50 (read off the curve) [8]: ~2 nM; IC50 (read off the curve) [9]: ~2 nM; IC50 (read off the curve) [10]: ~0.4 nM; IC50 (read off the curve) [11]: ~0.5 nM
B2 | 0.011 |  | 0.011 | 4.24 | 1.4 | 0.1 | 0.46 | ~2 | ~1 | ~0.6 | Kd [12]: 2.3 nM; Kd [16]: 1.25 nM; Kd [17]: 2.6 nM; fold potency against the parent FST315WT, Smad2/3 reporter gene assay [18]: 2 fold; fold potency against the parent FST315WT, Smad2/3 reporter gene assay [19]: 2 fold; fold potency against the parent FST315WT, Smad2/3 reporter gene assay [20]: 3 fold; fold potency against the parent FST315WT, Smad2/3 reporter gene assay [21]: 3 fold
B3 |  |  |  | 8.37 | 3.08 | 0.31 | 1.57 | ~6 | ~3 | ~2 | IC50 (read off the curve) [22]: ~0.4 nM
